Experimental data reported in patent publication US20240116985A1 (published 2024).
Values belong to the binder of their own block, whether it stands above or below them. Starred links: 1 amine or outer side, 2 acyl side, 3 side chain; linkers in the order of their positions; H or OH if unused. Positions of bridges follow the written chain, without caps; N, C: chain ends. Non-standard residues stand in square brackets, D forms with d. Primed or numbered codes have the meaning given here. PyrS2″ = (S)-3-amino-1-((pent-4-en-1-yloxy)carbonyl)pyrrolidine-3-carboxylic acid (stapling residue), C=CCCCOC(=O)N1CC[C@@](N[*:1])(C(=O)[*:2])C1; RdN″ = (R)-4-(((allyloxy)carbonyl)(methyl)amino)-2-amino-2-methylbutanoic acid (stapling residue), C=CCOC(=O)N(C)CC[C@@](C)(N[*:1])C(=O)[*:2]; B5(4) = 2,2-bis(4-pentenyl)glycine = 2-amino-2-(pent-4-en-1-yl)hept-6-enoic acid (stitching residue), C=CCCCC(CCCC=C)(N[*:1])C(=O)[*:2]; TfeGA = (S)-2-amino-3-((carboxymethyl)(2,2,2-trifluoroethyl)amino)propanoic acid, O=C([C@H](CN(CC(=O)[*:3])CC(F)(F)F)N[*:1])[*:2]; B5(3) = 2,2-bis(4-pentenyl)glycine (stitching residue), C=CCCCC(CCCC=C)(N[*:1])C(=O)[*:2]; AcLys″ = N6-acetyl-lysine, CC(=O)NCCCC[C@H](N[*:1])C(=O)[*:2]; Phe(3-COOH) = N[C@@H](Cc1cccc(C(=O)O)c1)C(=O)O; S7 = C[C@@](CCCCCC=[*:3])(N[*:1])C(=O)[*:2]; Phe(2-Cl) = N[C@@H](Cc1ccccc1Cl)C(=O)O; Bta = N[C@@H](Cc1csc2ccccc12)C(=O)O; αAllylPro = C=CC[C@@]1(C(=O)O)CCCN1; tBuAla = CC(C)(C)C[C@H](N)C(=O)O; 3Thi = N[C@@H](Cc1ccsc1)C(=O)O

Assays:
[1] = biological target: T1, full-length beta-Catenin (Uniprot ID P35222) (Homo sapiens (Human), UniProt P35222 2-781); assay: fluorescence polarization competition; peptide titrated against 10 nM full-length beta-catenin with 10 nM 5FAM-TCF4(10-53) probe
T1 construct: also called bCat; B-Catenin
T1 sequence: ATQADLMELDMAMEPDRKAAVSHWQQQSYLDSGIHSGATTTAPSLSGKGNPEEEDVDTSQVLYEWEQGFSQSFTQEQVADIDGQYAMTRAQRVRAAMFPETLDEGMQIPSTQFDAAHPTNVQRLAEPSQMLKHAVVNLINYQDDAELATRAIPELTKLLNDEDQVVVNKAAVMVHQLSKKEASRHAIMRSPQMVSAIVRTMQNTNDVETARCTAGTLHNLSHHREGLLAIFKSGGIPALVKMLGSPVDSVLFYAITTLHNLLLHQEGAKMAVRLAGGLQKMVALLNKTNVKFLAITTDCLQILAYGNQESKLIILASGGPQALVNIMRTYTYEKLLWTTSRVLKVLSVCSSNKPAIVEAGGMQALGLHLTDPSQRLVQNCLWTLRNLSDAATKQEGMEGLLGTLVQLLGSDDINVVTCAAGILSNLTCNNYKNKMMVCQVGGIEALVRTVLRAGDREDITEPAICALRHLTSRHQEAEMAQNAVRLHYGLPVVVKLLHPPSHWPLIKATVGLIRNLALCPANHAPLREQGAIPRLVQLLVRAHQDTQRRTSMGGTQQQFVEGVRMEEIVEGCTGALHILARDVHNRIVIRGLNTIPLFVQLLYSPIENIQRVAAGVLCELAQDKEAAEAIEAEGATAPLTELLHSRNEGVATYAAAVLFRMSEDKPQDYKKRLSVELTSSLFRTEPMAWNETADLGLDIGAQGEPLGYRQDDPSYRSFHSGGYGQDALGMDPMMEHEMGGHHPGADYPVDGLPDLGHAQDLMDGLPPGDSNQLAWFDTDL
Experimental: The plate was incubated protected from light for 60 minutes at 20° C. prior to read. Reads were performed on a CLARIOstar plate reader (BMG Labtech) in duplicate, and data were fitted to a 1:1 binding model with hill slope using an in-house script. All provided concentrations are final concentrations.

[2] = biological target: T2, beta-catenin in DLD1 TCF/LEF luciferase reporter cells (Homo sapiens (Human), UniProt P35222 1-781); assay: cell-based or functional assay
T2 sequence: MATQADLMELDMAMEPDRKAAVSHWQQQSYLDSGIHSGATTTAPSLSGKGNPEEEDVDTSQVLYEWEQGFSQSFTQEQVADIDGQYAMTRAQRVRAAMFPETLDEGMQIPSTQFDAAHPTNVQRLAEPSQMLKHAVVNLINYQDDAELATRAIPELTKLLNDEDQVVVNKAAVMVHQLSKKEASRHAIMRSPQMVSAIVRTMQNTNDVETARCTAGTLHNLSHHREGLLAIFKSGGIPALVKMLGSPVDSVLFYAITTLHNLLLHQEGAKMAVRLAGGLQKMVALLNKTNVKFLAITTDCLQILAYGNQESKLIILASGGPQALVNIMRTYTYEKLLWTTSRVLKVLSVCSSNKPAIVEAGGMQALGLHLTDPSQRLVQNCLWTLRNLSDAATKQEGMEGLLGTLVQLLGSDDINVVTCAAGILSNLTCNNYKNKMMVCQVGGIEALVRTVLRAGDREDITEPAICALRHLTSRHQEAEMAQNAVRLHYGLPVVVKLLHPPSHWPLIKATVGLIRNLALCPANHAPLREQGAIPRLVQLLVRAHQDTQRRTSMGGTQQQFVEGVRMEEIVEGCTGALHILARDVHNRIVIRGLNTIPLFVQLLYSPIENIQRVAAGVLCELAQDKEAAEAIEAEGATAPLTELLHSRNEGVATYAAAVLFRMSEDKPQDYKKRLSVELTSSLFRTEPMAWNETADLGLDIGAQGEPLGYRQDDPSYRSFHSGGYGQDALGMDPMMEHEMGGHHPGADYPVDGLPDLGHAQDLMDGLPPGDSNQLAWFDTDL

[3] = biological target: T3, beta-catenin in DLD1 TCF/LEF luciferase reporter cells (UniProt P35222 1-781); assay: cell-based or functional assay
T3 sequence (looked up): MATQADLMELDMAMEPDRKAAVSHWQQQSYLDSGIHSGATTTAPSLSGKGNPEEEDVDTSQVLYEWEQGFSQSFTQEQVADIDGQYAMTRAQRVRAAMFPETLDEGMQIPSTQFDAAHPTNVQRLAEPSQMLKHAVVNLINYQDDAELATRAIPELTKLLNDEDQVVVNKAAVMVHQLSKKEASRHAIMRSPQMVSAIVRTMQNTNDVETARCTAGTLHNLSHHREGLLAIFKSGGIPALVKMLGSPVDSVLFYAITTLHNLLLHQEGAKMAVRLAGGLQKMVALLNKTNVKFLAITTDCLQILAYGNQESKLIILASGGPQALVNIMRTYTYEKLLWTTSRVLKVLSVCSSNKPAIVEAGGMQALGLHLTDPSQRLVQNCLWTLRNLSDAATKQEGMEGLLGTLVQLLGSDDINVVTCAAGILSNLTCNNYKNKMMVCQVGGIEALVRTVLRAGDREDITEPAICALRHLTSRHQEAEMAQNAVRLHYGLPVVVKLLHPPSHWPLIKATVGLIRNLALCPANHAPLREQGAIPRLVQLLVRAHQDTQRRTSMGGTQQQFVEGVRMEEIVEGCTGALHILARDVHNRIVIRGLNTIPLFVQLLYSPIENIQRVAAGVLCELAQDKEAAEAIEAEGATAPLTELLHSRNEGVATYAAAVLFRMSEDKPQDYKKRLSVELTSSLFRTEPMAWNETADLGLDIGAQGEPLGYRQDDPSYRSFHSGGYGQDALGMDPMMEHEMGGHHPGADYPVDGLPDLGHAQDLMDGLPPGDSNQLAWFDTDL

B-cat-Halo = biological target: T4, B-cat-Halo (UniProt P35222 1-781); assay: cell-based or functional assay
T4 sequence (looked up): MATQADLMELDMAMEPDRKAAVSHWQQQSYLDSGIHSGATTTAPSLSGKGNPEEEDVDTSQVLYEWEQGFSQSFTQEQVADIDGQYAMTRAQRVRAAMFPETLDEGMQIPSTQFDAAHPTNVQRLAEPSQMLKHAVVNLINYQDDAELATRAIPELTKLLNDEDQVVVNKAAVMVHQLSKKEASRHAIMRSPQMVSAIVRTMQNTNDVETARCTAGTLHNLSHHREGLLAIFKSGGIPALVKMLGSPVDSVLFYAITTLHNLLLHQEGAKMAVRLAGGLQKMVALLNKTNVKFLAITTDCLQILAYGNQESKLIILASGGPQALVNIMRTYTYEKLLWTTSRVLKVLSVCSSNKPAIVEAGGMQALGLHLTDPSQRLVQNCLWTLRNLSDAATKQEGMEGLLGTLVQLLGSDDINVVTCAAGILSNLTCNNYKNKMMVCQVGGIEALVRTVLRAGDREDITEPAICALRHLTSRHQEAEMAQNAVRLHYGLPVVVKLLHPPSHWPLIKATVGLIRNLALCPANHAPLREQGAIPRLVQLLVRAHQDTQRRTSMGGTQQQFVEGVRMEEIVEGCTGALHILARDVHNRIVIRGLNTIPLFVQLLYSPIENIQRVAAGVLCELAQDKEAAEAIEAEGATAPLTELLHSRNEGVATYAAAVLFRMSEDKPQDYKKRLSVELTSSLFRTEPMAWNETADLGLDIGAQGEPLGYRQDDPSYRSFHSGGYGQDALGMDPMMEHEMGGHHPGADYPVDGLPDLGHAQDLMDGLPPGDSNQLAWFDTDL

IC50 [1]: 1230 nM
B1: I-67: Ac-Ala-Asp-Ile-RdN-Asp-Glu-Ala-Ala-Phe-Gln-S7-Phe-Trp-His-NH2 (stapled peptide) (peptide)
peptide: Ac-ADI[RdN″]DEAAFQ[S7]FWH-NH2
modifications: staple 4-11
notes: This is the later eluting staple isomer composition

DLD1 4% Abs IC50 [2]: 1900 nM
Binder: Ac-[αAllylPro]D[tBuAla][B5(3)]D[Phe(3-COOH)]AAFL[PyrS2″][Phe(2-Cl)][Bta]NAA[dA]-NH2 (staple 1-4, 4-11) [I-2041]

DLD1 4% Abs IC50 [3]: 3900 nM
NanoBRET Abs IC50 (B-cat-Halo): 6200 nM
Binder: Ac-[αAllylPro]D[tBuAla][B5(4)]D[TfeGA]AAFL[PyrS2″][3Thi][Bta][AcLys″]-NH2 (staple 1-4, 4-11) [I-1709]
